This note sets out measurements from patent publication US20060062783A1 (Amgen, published 2006).

Experiment [1] concerns the target T1, Human PTH (1-34) (human, not fully specified).
T1 peptide: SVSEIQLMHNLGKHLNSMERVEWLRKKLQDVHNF
Put plainly: cell-based or functional assay.

Experiment [2] concerns the target T2, Human PTH (1-84) (human).
T2 construct: Synthetic peptide bought from Bachem; also called hPTH1-84; Hu 84mer
T2 peptide: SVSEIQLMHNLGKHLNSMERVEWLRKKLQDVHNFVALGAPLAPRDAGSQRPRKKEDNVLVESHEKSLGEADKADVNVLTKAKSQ
Put plainly: BiaCore, 37° C., 84mer.

Experiment [3] addresses T3, endogenous human PTH in pooled serum from hemodialysis patients (human, UniProt P01270 32-115, limits assumed).
T3 construct: Circulating hormone; may be a mix of intact PTH and fragments
T3 sequence (looked up): T2 peptide
As to the kind of experiment: immunoassay-based Scatchard analysis in pooled serum of hemodialysis patients.

In experiment [4] the target is T1, Human PTH (1-34). As to the kind of experiment: BiaCore, 37° C., 34mer.
The target of experiment [5] is T4, Human PTH-related peptide (1-34) (human).
T4 construct: Synthetic peptide bought from Bachem; also called PTH-related protein 1-34; PTHrP
As to the kind of experiment: indirect: competition ELISA on biotinylated human PTH 1-34. The method, then:
Biotinylated human PTH 1-34 was bound to streptavidin plates at 1 μg/mL for 30 minutes at RT. The plates were washed 5 times with dH2O. […] The titrated antibody was then transferred to the plate coated with human PTH 1-34 and allowed to bind for 1 hour at RT. After washing the plates 5 times with dH2O, 50 μL of Gt anti-Human (Fc)-HRP at 1 μg/mL was added to each well and the plates held 1 hour at RT. After washing the plates 5 times with dH2O, 50 μL of TMB substrate was added to each well. To stop the reaction, 50 μL of 1M phosphoric acid was added to each well. The plates were read at wavelength 450 nm.

Experiment [6] deals with T1, Human PTH (1-34). Put plainly: KinExA, solution equilibrium, room temperature. The source says: (§1) Kinetic analysis. […] This method involves solution-based determination of formal affinity measurements at equilibrium. Dual curve analysis with two known antibody concentrations and unknown antigen concentration was used to determine the KD measurements on human 34mer, human 84mer, cynomolgus 84mer and rat 84mer.

In experiment [7] the target is T5, Rat PTH (1-84) (rat).
T5 construct: Synthetic peptide bought from Bachem; also called Rat 84mer
T5 peptide: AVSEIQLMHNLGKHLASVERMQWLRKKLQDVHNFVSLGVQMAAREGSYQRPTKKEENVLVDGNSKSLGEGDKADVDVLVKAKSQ
Put plainly: KinExA, solution equilibrium, room temperature.
Text: as §1

Experiment [8] deals with T2, Human PTH (1-84). As to the kind of experiment: KinExA, solution equilibrium, room temperature.
Text: as §1

Experiment [9] deals with T6, Cynomolgus PTH (1-84) (cynomolgus).
T6 construct: Synthetic peptide (CS Bio Company for the KinExA measurement and the monkey study); also called cynoPTH (1-84); cynomolgus 84mer
T6 peptide: T2 peptide with V35I, V58I, N76D
Put plainly: KinExA, solution equilibrium, room temperature.
Text: as §1

In experiment [10] the target is T1, Human PTH (1-34). Put plainly: BiaCore, 25° C., 34mer.
Experiment [11] has as its target T7, PTH 20-28 peptide RVAWLRKKL
T7 construct: Alanine variant; the entry already holds the change
T7 peptide: RVAWLRKKL
Put plainly: alanine-scanning peptide array.

In experiment [12] the target is T8, PTH 20-28 peptide RVEALRKKL
T8 construct: Alanine variant; the entry already holds the change
T8 peptide: RVEALRKKL
As to the kind of experiment: alanine-scanning peptide array.

Experiment [13] deals with T9, PTH 20-28 peptide RVEWLRAKL
T9 construct: Alanine variant; the entry already holds the change
T9 peptide: RVEWLRAKL
Put plainly: alanine-scanning peptide array.

Experiment [14] has as its target T10, PTH 20-28 peptide RVEWLRKAL
T10 construct: Alanine variant; the entry already holds the change
T10 peptide: RVEWLRKAL
Put plainly: alanine-scanning peptide array.

The target in experiment [15] is T11, PTH 20-28 peptide AVEWLRKKL
T11 construct: Alanine variant; the entry already holds the change
T11 peptide: AVEWLRKKL
As to the kind of experiment: alanine-scanning peptide array.

Experiment [16] has as its target T12, PTH peptide RVEWLRKKL (amino acids 20-28, wild type).
T12 construct: Peptide on a custom peptide array; also called wild-type peptide
T12 peptide: RVEWLRKKL
Put plainly: alanine-scanning peptide array.

For experiment [17], the target named is T13, PTH 20-28 peptide RVEWLRKKA
T13 construct: Alanine variant; the entry already holds the change
T13 peptide: RVEWLRKKA
As to the kind of experiment: alanine-scanning peptide array.

Experiment [18] addresses T14, PTH 20-28 peptide RVEWARKKL
T14 construct: Alanine variant; the entry already holds the change
T14 peptide: RVEWARKKL
As to the kind of experiment: alanine-scanning peptide array.

Experiment [19] addresses T15, PTH 20-28 peptide RVEWLAKKL
T15 construct: Alanine variant; the entry already holds the change
T15 peptide: RVEWLAKKL
As to the kind of experiment: alanine-scanning peptide array.

Experiment [20] has as its target T16, PTH 20-28 peptide RAEWLRKKL
T16 construct: Alanine variant; the entry already holds the change
T16 peptide: RAEWLRKKL
Put plainly: alanine-scanning peptide array.

The target in experiment [21] is T1, Human PTH (1-34). As to the kind of experiment: cell-based or functional assay.
Experiment [22] concerns the target T5, Rat PTH (1-84). As to the kind of experiment: ELISA on coated peptide; B cell supernatant.
The target in experiment [23] is T2, Human PTH (1-84). As to the kind of experiment: ELISA on coated peptide; B cell supernatant.
Experiment [24] deals with T17, Human PTH (18-48) (human).
T17 construct: Synthetic peptide bought from Bachem; also called hPTH18-48; 18-48mer
T17 peptide: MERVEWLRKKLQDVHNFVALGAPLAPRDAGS
Put plainly: ELISA on coated peptide; B cell supernatant.

Experiment [25] addresses T18, Human PTH (7-84) (human).
T18 construct: Synthetic peptide bought from Bachem; also called hPTH7-84; 7-84mer
T18 peptide: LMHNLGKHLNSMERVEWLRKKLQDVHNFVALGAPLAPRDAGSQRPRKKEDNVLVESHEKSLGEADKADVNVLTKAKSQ
Put plainly: ELISA on coated peptide; B cell supernatant.

Residue numbers refer to the chain shown, from its start.

T4 sequence (peptide, as listed by the source): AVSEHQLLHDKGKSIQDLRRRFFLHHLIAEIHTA

B1: anti-PTH mAb 183 (antibody, human IgG2, V domains shown)
VH: EVQLVQSGAEVKKPGESLKISCKGSGYSFTSYWIGWVRQMPGKGLEWMGIISPGDSDTRYSPSFQGQVTISADKSISTAYLQWSSLKASDTAMYYCARQGDYVWGSYDSWGQGTLVTVSS
VL: DIVMTQTPLSLSVTPGRPASISCKSSQSLLDSDGKTYLYWYLQKPGQPPQLLIYEVSNRFSGVPDRFSGSGSGTDFTLRISRVEAEDVGIYFCMPSIHLWTFGQGTKVEIK
As for B1, the “IC50 of calcium influx in UMR-106 cells (FLIPR)” value in experiment [1] is around 100 nM. For the same molecule, the equilibrium dissociation constant (Kd) in experiment [2] is 1 nM; in [3], 0.06 nM; in [4] it was 0.1 nM; in [6], 0.033 nM; in experiment [7], 3 nM; in [8] it was 0.022 nM. For the same molecule, the Kd in [9] is 0.01 nM; in experiment [10], 0.08 nM. In addition, the binding result in [5] was “no binding (tested: 5 µg/mL PTHrp)”; in experiment [11], “no binding”; in experiment [12] it was “binds”; in experiment [13], “binds”; in experiment [14], “no binding”; in experiment [15], “no binding”. For the same molecule, the binding result in [16] is on record as “binds”; in experiment [17], “no binding”; in experiment [18], “no binding”; in experiment [19], “no binding”; in [20], “no binding”. Besides, the “KD High” value was 0.065 nM in [6], 5 nM in experiment [7], 0.039 nM in [8] and 0.018 nM in experiment [9]. Moreover, the “KD Low” value came out at 0.014 nM in experiment [6], 2 nM in experiment [7], 0.012 nM in experiment [8] and 0.005 nM in [9]. For the same molecule, the “IC50 (read off the curve)” value in [21] is around 100 nM. Also, the OD in [22] is 0.62 OD450; in [23], 1.4 OD450; in [24] it was 3.26 OD450; in experiment [25], 1.95 OD450.

B2: anti-PTH mAb 168g2/183k (antibody, V domains shown)
VH: B1 VH with G26R, S28I, S31N, S52Y, K74M, Y107F
VL: B1 VL
Turning to B2, the equilibrium dissociation constant (Kd) in experiment [4] was found to be 0.64 nM; in experiment [10] it was 0.28 nM.

B3: anti-PTH mAb 168 (antibody, human IgG2, V domains shown)
VH: B1 VH with G26R, S28I, S31N, S52Y, K74M, Y107F
VL: B1 VL with R17Q, R79K, I90V, F92Y, P95Q, H98Q
notes: also called XG2-168; AB-PTH-XG2-168
As for B3, the dissociation constant (Kd) in experiment [4] stood at 2.6 nM; in experiment [10], 2.7 nM.

B4: anti-PTH mAb 011 (antibody, IgG2, V domains shown)
VH: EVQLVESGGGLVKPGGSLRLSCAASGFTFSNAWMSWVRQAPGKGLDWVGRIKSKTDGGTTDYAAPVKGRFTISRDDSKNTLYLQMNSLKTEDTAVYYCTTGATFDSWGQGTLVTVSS
VL: DIVMTQSPLSLPVTPGEPASISCRSSQSLLHSNGYKFLDWFLQKPGQSPQLLIYLGSYRASGVPDRFSGRGSGTDFTLKISRVEAEDVGVYYCMQALQTPWTFGQGTKVEIK
notes: also called AB-PTH-XG2-011; well 133A8
As for B4, the Kd in experiment [4] came out at 3.5 nM; in experiment [10] it was 1 nM.

B5: anti-PTH mAb 262 (antibody, IgG2, V domains shown)
VH: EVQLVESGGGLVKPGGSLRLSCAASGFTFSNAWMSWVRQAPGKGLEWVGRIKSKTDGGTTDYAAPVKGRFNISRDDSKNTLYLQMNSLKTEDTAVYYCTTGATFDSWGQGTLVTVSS
VL: B4 VL with F37Y, Y58I, R70S
notes: also called XG2-262; AB-PTH-XG2-262
For B5, the OD in [22] is 2.11 OD450; in experiment [23], 1.46 OD450; in experiment [24], 0.25 OD450.

B6: anti-PTH mAb 124 (antibody, IgG2, V domains shown)
VH: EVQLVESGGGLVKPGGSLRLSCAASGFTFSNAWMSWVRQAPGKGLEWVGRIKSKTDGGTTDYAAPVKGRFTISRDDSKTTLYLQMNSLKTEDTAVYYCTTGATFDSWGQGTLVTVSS
VL: B4 VL with H31Y, Y35F, F37Y, R70S
notes: also called AB-PTH-XG2-124; well 135H11
With B6, the dissociation constant Kd in experiment [4] is 3.3 nM; in experiment [10], 0.5 nM.

B7: anti-PTH mAb 214 (antibody, IgG2, V domains shown)
VH: EVQLVESGGGLVKPGGSLRLSCAASGSTFSNAWMSWVRQAPGKGLEWVGRIKSRTDGGTADYAAPVKGRFTISRDDLKKTLYLQMNSLKTEDTAVYYCTTYYFDSSGFPFDYWGQGTLVTVSS
VL: B4 VL with S10Y, F37Y, D39E, F41Y, I53V, Y58N, R70S, W101L, Q105G
notes: also called AB-PTH-XG2-214; well 267D10
As to B7, the Kd in [2] turned out to be 1.6 nM; in experiment [4] it was 0.4 nM; in experiment [10] it was 0.8 nM.

B8: anti-PTH mAb 140 (antibody, IgG2, V domains shown)
VH: EVQLVESGGGLVKPGGSLTLSCAASGFTFSNAWLSWVRQAPGKGLEWVGRIKSKTDGGTTDYAAPVKGRFTVSRDDSKNTLFLQMNSLKTEDTAVYYCTTGATFDSWGQGTLVTVSS
VL: B4 VL with R70S, K79T
notes: also called AB-PTH-XG2-140; well 132G12
Turning to B8, the dissociation constant Kd in experiment [4] turned out to be 5.2 nM; in [10], 0.8 nM.

B9: anti-PTH mAb 057 (antibody, IgG2, V domains shown)
VH: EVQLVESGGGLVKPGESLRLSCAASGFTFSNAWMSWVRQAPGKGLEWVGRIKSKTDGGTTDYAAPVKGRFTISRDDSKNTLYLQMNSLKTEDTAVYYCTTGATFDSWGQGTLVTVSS
VL: B4 VL with H31Y, F37Y, F41Y, R70S
notes: also called AB-PTH-XG2-057; well 119G2
Turning to B9, the dissociation constant Kd in experiment [4] and in [10] was 1 nM throughout.

B10: anti-PTH mAb 045 (antibody, IgG2, V domains shown)
VH: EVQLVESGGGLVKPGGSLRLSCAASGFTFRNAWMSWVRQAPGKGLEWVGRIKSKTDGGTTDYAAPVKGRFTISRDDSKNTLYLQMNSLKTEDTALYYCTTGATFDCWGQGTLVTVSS
VL: B4 VL with K36N, F37Y, R70S, V90I, L97R
notes: also called AB-PTH-XG2-045; well 123B12
B10: the Kd in [4] turned out to be 2 nM; in experiment [10] it was 0.5 nM.

B11: anti-PTH mAb 163 (antibody, IgG2, V domains shown)
VH: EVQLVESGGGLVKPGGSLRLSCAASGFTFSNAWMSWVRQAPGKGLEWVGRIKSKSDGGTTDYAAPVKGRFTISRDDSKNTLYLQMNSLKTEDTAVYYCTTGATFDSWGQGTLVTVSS
VL: B4 VL with S32R, F37Y, F41Y, R70S, F76S
notes: also called AB-PTH-XG2-163; well 130A1
With B11, the figures for the Kd in experiment [2], in [4] and in experiment [10] were 41.1 nM, 7.9 nM and 3 nM, respectively.

B12: anti-PTH mAb 225 (antibody, IgG2, V domains shown)
VH: not shown
VL: EIVMTQSPLNLPVTPGEPASISCRSSQSLLHSNGYKYLEWYLQKPGQSPQLLIYLGSNRASGVPDRFSGSGSGTDFTLKISRVEAEDVGVYYCMQTLQIPLTFGGGTKVEIK
notes: also called well 275A4
Consider B12, for which the dissociation constant Kd in experiment [2] was 7.1 nM; in experiment [4], 0.6 nM; in [10] it was 0.35 nM.

B13: anti-PTH mAb 026 (antibody, IgG2, V domains shown)
VH: QVQLVESGGGVVQPGRSLRLSCAASGFTFSSYGMHWVRQAPGKGLDWVAVISYDGSNKFYADSVKGRFTISRDNSKNTLYLQMNSLRAEDTAVYYCARDHWELLDYWGQGTLVTVSS
VL: DIVMTQTPLSLSVTPGQPASISCKSSQSLLDSDGKTYLYWYLQRSGQPPQLLIHEVSNRFSGVPYRFIGSGSGTDFTLKISRVEAEDVGAYYCMQGKQFPFIFGPGTKVDIK
notes: also called AB-PTH-XG2-026; well 126B1
Consider B13, for which the Kd in [4] was found to be 9.5 nM; in [10], 3 nM.
